Laboratory results as given in the supplement of paper PMC12042874.
± gives the uncertainty stated by the source.

Assay: amyloid nucleation score (Sup35N fusion, yeast selection) (log enrichment); library NNK3; higher = more nucleation; inactive = no reads after selection
How it was run: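 Output and input plasmid inserts were sequenced by Illumina after psi-negative yeast carrying Sup35N fused to peptides of 20 random codons had been induced 24 hours with 100 μM copper sulfate and grown 7 days at 30°C on medium lacking adenine and uracil. The nucleation score is the DiMSum log enrichment of output over input reads, centred on the mode score of non-aggregating sequences. Sequences with under 100 input reads were excluded.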

Row | Substance | amyloid nucleation score
1 | VVIIK | inactive
2 | CYLVLFGAM | inactive
3 | LIDMVVFNYKLVIRVRKGSL | inactive
4 | LKRLHFKSGDMSGQRQFRGS | inactive
5 | GIAIFTMDCGV | inactive
6 | ILVLRHA | inactive
7 | FYYRESRQLRLWVYIGSIVY | inactive
8 | CFTLFVSQYVNDLDDYKRNW | 1.34 ± 0.092
9 | IVVCFRSRRFCSSRYHS | inactive
10 | VVWASV | inactive
11 | GMSICVPSKS | 0.179 ± 0.34
12 | RYTIGFHLSMDSAYSISFYP | inactive
13 | YVIVLNR | 2.3 ± 0.069
14 | RKCLMMCDYCITLNM | 2.29 ± 0.06
15 | MWSVPLKSQAILYTFDCVSL | 0.174 ± 0.44
16 | SSYYISNVSMPTFSEFVVTL | inactive
17 | FYCFIPGMSVMAPFVTSYYY | 1.91 ± 0.053
18 | FSVGFYFIYMTLKCGSCVQW | -0.362 ± 1.1
19 | VISFLMKLRWYCTVHGSGGM | inactive
20 | RRPVRSSNGALTLICRDREF | inactive
21 | RSDENWRMTYWRAGCRVLDV | inactive
22 | GSVSYISLSDNWVSGRKK | inactive
23 | GDMFDWFSGELVFRMRNILC | -0.917 ± 1.1
24 | FVCSARYNSFRFKATVHNSR | inactive

Row | Substance | amyloid nucleation score
25 | YVELSTYCSRWLVLIVDYLE | inactive
26 | LDLNLRVRVLFKFTTGLTFF | inactive
27 | RRFCRYVYEMG | inactive
28 | LCWKFAPRMLVYMMGY | inactive
29 | IIFDR | inactive
30 | SWKVTMKPGNFWV | inactive
31 | LVRIMYL | inactive
32 | EVYYPDVNLLEPGAVKLGRH | inactive
33 | NVAAISGILYSLLTFFLSGG | inactive
34 | STVQLYSPIQESVVTVFTNK | inactive
35 | LFKYGALLCVEVQY | inactive
36 | EIRTRPKRSVVGSRVSMGVS | inactive
37 | WVLLRWAGY | -0.611 ± 2.4
38 | DLGFWPYFISIMACCWDQKG | 1.15 ± 0.12
39 | SKVQVIFLSSFFGTIQLWVL | inactive
40 | DVPGIGCEGKALRRLGFLLR | inactive
41 | LGQFQCQE | inactive
42 | TDVLELVSTHCRYGFSVPQP | inactive
43 | YYGLAVWSERNVRWMGEGEA | inactive
44 | YDAIVAPFSFSTLAVVITYG | inactive
45 | AEWYIRITGDICLDPYLCKN | inactive
46 | VFEVVYV | inactive
47 | SLKSPLRCFLILHSPALCLG | inactive
48 | SIIDKE | -0.605 ± 0.98

Row | Substance | amyloid nucleation score
49 | NSNYSVG | inactive
50 | ENVLVVRMDRVLY | inactive
51 | DAKKVCFGIKEDCWR | inactive
52 | HRDNLWRWNFFCPNY | 0.993 ± 0.12
53 | TLTLAFARGDAYPSIARLV | inactive
54 | QSFIRSFIVYVKDALGAHHG | inactive
55 | CLKFQSVY | inactive
56 | GACYTFAA | inactive
57 | VTLDEFRIISHCSYSFCYEG | inactive
58 | DSRAGRGMSFLRFNRRSVDE | 0.209 ± 0.38
59 | RVLVWTFYEKAKNCAFCRGV | inactive
60 | EIKSDICFGFVYTTS | inactive
61 | SKMLIWSYLHGGNRCDLSDW | inactive
62 | YTLGHRTPMLIYDVAGRPNY | inactive
63 | NQVRVSKSVNRAIDASPEWD | inactive
64 | LDFDVGI | inactive
65 | MCLYQGESRYGSYLYFTDIN | inactive
66 | SCMVNMSPVGWDSAGGEQGV | inactive
67 | KPNLRFLS | inactive
68 | KIQSSTNLPFGASL | inactive
69 | VSQYSVLGVAWSELFRTVD | -0.064 ± 0.26
70 | YNGYALRF | inactive
71 | VCVKYAMTPVWSAGAARFHK | inactive
72 | ISLFDNNLRGWMYGVFRSIA | inactive

Row | Substance | amyloid nucleation score
73 | YRILRL | inactive
74 | SFDNSWVVGAIELNDFDSWH | inactive
75 | SIGELPT | inactive
76 | VFFFMELEYSYFEY | inactive
77 | YDCWFPHLSECLQLDTIFKA | inactive
78 | ELSYDRSKYSINSLWLGIPI | inactive
79 | YYTGCHSSVSC | inactive
80 | PYLAGWRSLIPFNTSLCSGC | inactive
81 | AFKWSRSCGMWLTDIGAWW | inactive
82 | PSCFLPFNCPITLVYTCSLF | 2.14 ± 0.07
83 | TVARMRFSTMTRDAQCVGRL | 0.107 ± 0.9
84 | GVFFFNYLNS | 0.63 ± 0.14
85 | VGLFASPDRRYRMIAFVPGL | inactive
86 | SVSLCFYFGIDYRILLMPEN | 0.088 ± 0.73
87 | VLGYDGAGKVVIFDVNLAGL | 1.87 ± 0.083
88 | FQKLEVNKLGIIWNHVLTRK | inactive
89 | CTVPMPDSVNVSAE | inactive
90 | TTLGHTPPVCFSDPWAQARA | inactive
91 | LFEYGYCMIGIQLLKRY | inactive
92 | NEGSNATC | 0.713 ± 0.13
93 | APIKIRFD | inactive
94 | WGSEFIDTKFA | inactive
95 | FMHPADVEHGTREYLNVTGG | inactive
96 | AELVNIF | inactive

Row | Substance | amyloid nucleation score
97 | GVYSVSLLVLWMSMRASIAC | inactive
98 | GPFQLA | inactive
99 | QWIGISNRLLYKDWLNWRYE | inactive
100 | RYGFDRIPIFLLNVAMNVYP | 0.535 ± 0.58
101 | SCPLR | inactive
102 | CLYPGRSWVTGAGITVWSLV | inactive
103 | CLWKG | inactive
104 | RLTGEMRRCVVHGKRSHRVF | inactive
105 | ARWVWDIKETVTLV | inactive
106 | ILVTASTAYLDVRVKWIQTF | inactive
107 | NGGAHSLGK | inactive
108 | LRCKKRLVRFLHVHEFAVEY | -0.211 ± 0.52
109 | CQHGGCALQHHTYRCEVGAG | inactive
110 | FKWQEW | -0.943 ± 1.3
111 | LVFFFLWHSHENFNHDLVSK | inactive
112 | RFNSWRSCIWLM | inactive
113 | VSHSAFVLNSCERE | inactive
114 | VSKLWSYLVLYPHWV | inactive
115 | ICGMLR | inactive
116 | NTGCSDNFESFCLKATVHWV | inactive
117 | MIIRGKPVIWMECLAVRTDR | inactive
118 | AYRVVQTGDLHGRCAWIVNV | 0.088 ± 0.88
119 | GGTLFLYGLIHQHWFLRMHE | 1.05 ± 0.16
120 | CFAVWHISVEMYVRDRW | inactive
